Tested on: ZFP-TF 14172-p65 (rat GDNF activator) (synthetic)
Assay: cell_activity
Conditions: GDNF mRNA increase vs AAV-GFP in rat eye; also activates in rat striatal neurons (FIG. 5)

GGGGGCGCGGAACCGGGA (double strand) [rat GDNF target site (SEQ ID NO:55)]
activity: 5 fold
